The test system of data set [1] is B6 normal mice. The data set is described as follows: MG12 vs. GLP-1 and GLP-2 combo: body weight and small intestine changes. It is filed as in vivo. The following applies: 12 days SC, normalized to cumulative feed intake. As for the experimental part: In particular, in order to observe changes in body weight and the small intestine following the substance administration, an experiment was conducted in B6 normal mice. […] After starting drug administration twice a week during the test period, feed intake was measured and expressed as cumulative feed intake, and pre-autopsy body weight was measured to calculate the body weight vs. feed intake. After the autopsy, the weight of the small intestine, and mucosal depth and villus height of the duodenum and the jejunum were measured. More specifically, after the autopsy, the entire gastrointestinal tract of the mouse was separated, the mesentery and the pancreas were excised, and the area where the ileum and the cecum meet was cut to separate the small intestine and the large intestine.

Data set [2] is described as follows: In vivo pharmacokinetics profile after subcutaneous administration (GLP-1-Fc ELISA and GLP-2-Fc ELISA). Details: species or system male SD (Sprague Dawley) rats. The settings on record: GLP-1-Fc ELISA. Here is the method:
First, each protein was administered to 3 male SD (Sprague Dawley) rats per group at a dose of 1 mg/kg by subcutaneous (SC) route. Before injection and after 0.5, 1, 5, 10, 24, 48, 72, 120, and 168 hours after the injection, blood was collected and stored at room temperature for 30 minutes to aggregate. After centrifuging the aggregated blood at 3,000 rpm for 10 minutes, serum of each sample was collected and stored in a cryogenic freezer. Analyses were performed by an assay designed to specifically detect the GLP-1 site and Fc in the administered protein (GLP-1-Fc ELISA) and an assay designed to specifically detect the GLP-2 site and Fc in the administered protein (GLP-2-Fc ELISA). Specifically, a method of loading a biological sample on a plate coated with an antibody that binds to mouse-derived human immunoglobulin G4 (IgG4) to detect the target protein using a biotinylated anti-GLP-1 antibody (GLP-1-Fc ELISA), and a method of loading a biological sample on a plate coated with a monoclonal antibody that specifically reacts with GLP-2, to detect the target protein using a secondary antibody having HRP conjugated to mouse-derived human immunoglobulin G4 (IgG4) (GLP-2-Fc ELISA) were used. The obtained and prepared serum samples were loaded with appropriate dilutions to be analyzed at a position on a straight line of the standard curve.

Data set [3] relates to B6 normal mice. The data set is described as follows: Small intestine weight and body weight (GLP-1-Fc homodimer, GLP-2-Fc homodimer, MG12-1, MG12-4). It is filed as in vivo. The settings on record: SC twice a week, 4 doses; homodimers 10 nmol/kg, MG12 20 nmol/kg. An excerpt: In addition, the present inventors conducted the same experiment as above while only varying the administered substance, in order to confirm whether the bispecific fusion proteins (MG12-1 and MG12-4) designed in a form other than MG12-5 also increase the small intestine weight and energy absorption rate of experimental animals. Specifically, PBS, 10 nmol/kg GLP-1-Fc homodimer, 10 nmol/kg GLP-2-Fc homodimer, 20 nmol/kg MG12-1, and 20 nmol/kg MG12-4 were subcutaneously administered. The drug was administered twice a week for a total of 4 times for 2 weeks. After 4 doses, the body weight was measured before autopsy, and the small intestine was excised after the autopsy and weighed. After the autopsy, the entire gastrointestinal tract of the mouse was separated, the mesentery and the pancreas were excised, and the area where the ileum and the cecum meet was cut to separate the small intestine and the large intestine. The separated small intestine was perfused and washed with 10% neutral formalin to remove the contents, and was weighed after removing the neutral formalin with an absorbent towel.

The next data set deals with Balb/c-nude mice. The data set is described as follows: PET-MRI tissue distribution of Zr89-labelled proteins. The following applies: Zr89 label, SC. It is filed as in vivo. An excerpt:
Next, the present inventors performed an experiment in Balb/c-nude mice in order to observe the distribution in each tissue organ following the administration of a substance. Zr^89 was used as a radiotracer for tracking the distribution after administration of each substance. Each substance to be administered was labeled with Zr^89 as a reaction condition and a chelator selected through a preliminary test. The labeled Zr^89-protein was purified using a PD-10 column, and Zr^89 labeling efficiency and purity were confirmed using Radio TLC and SEC-HPLC. The labeling efficiency of the Zr^89-protein of 90% or more and the purity of 80% or more were determined to be appropriate, and the labeled protein was administered subcutaneously at 0.2 mCi/0.2 cc. Each administration substance was administered to three animals and static images for 20 minutes were obtained using PET-MRI at 1 hour, 6 hours, 24 hours, 48 hours, and 168 hours after injection. Through image analysis, the distribution of drugs as a function of time in the liver, small intestine, and large intestine was expressed as SUV (Standardized Uptake Value) and comparatively analyzed.

Data set [4] concerns B6 normal mice. The data set is described as follows: Fluorescence spectrometry tissue distribution of Cy5.5-labelled substances. It is filed as in vivo. Here is the method: Next, the present inventors performed an experiment in B6 normal mice in order to observe the distribution in each tissue and organ according to the administration of a bispecific fusion protein according to an embodiment of the present invention. Cy5.5 was used as a fluorophore for tracking the distribution after administration of each substance. Buffer exchange was performed for each substance to be administered, MG12-1, MG12-4, and GLP-1Fc homodimer with boric acid buffer (pH 8.5), and with reference to the protocol of the Cy5.5 labeling kit (GE, #PA15605) were allowed to react with an appropriate amount of Cy5.5 overnight under refrigeration conditions. Unreacted Cy5.5 in the reaction-completed substance was removed through the PBS substitution process, and whether Cy5.5 was reacted well was confirmed through the final SDS-PAGE. Each administered substance was diluted with 10% DMSO/PBS to have the same fluorescence intensity using an ELISA plate reader capable of measuring fluorescence intensity before being administered.

For a further data set, the target named is T1, GLP-2 receptor (Homo sapiens, UniProt O95838).
T1 sequence (O95838 1-553): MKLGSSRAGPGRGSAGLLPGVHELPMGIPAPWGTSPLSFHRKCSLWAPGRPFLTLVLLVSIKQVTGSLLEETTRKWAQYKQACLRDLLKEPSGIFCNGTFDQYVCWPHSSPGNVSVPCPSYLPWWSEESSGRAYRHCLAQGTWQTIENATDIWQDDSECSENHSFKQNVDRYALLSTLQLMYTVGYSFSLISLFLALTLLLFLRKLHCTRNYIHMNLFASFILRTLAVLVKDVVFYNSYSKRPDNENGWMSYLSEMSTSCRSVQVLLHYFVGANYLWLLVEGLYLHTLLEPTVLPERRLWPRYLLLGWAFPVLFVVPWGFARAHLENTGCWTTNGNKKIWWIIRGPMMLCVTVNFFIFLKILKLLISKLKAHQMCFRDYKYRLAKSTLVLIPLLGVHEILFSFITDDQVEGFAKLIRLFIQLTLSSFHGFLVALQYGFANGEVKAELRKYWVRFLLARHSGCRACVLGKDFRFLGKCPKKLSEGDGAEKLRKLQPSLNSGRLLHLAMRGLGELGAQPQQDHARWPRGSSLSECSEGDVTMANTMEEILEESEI
The data set is described as follows: GLP-2 in vitro activity, cAMP/CNG channel membrane potential fluorescence assay (Human GLP2R ACTOne cell line).

Where [5] appears, read: 24 hours after administration, Cy5.5 label.

Entries after “also recorded” stand apart in the source; their conditions may differ. Read-outs that look alike come from different tables or passages of the source.

Procedure for GLP-2 receptor: Specifically, in order to evaluate the degree of CAMP induction by the GLP-2 specific reaction, a transformed cell line (Human GLP2R ACTOne™), having GLP-2 receptor expressed in a cell line expressing CNG channels that open in a CAMP-specific manner, was procured. […] The washed cells were diluted with a cell culture medium (DMEM/high glucose medium, supplemented with 10% FBS, 5% G418, 0.01% puromycin) and seeded at 3˜5×10^4 cells/100 μL/well, and were incubated in an incubator for about 20 hours at 37° C., 5% CO2. After removing the plate from the CO2 incubator, the cells were observed under a microscope, and when the cell confluence reached 80% or more, 1× dye-loaded solution (Elite™ fluorescent membrane potential dye kit, eEnzyme) was added at 100 μL/well. While blocking the light at room temperature, the reaction was carried out for 2 to 2.5 hours, and before adding the test solutions, the fluorescence baseline (F0) was measured using ELISA. Thereafter, the test solutions of various concentrations to be evaluated were treated at 50 μL/well, reacted for 0.5 hours, and then were measured for fluorescence value (Ft) using ELISA. The reactivity of each test solution was evaluated using the Ft/F0 ratio.

B1: MG12-4: Knob/hole Fc heterodimer: GLP-1/Exendin 4 hybrid (SEQ 5), glycan linker, first fusion protein SEQ 27; GLP-2 (SEQ 17), second fusion protein SEQ 34 (protein)
chain 1: HGEGTFTSDVSSYLEGQAAKEFIAWLVKGGPSSGAPPPSGGGGGSGGGGSGGGGSAKNTTAPATTRNTTRGGEEKKKEKEKEEQEERTHTCPPCPSHTQPLGVFLFPPKPKDQLMISRTPEVTCVVVDVSQEDPEVQFNWYVDGVEVHNAKTKPREEQFNSTYRVVSVLTVLHQDWLNGKEYKCKVSNKGLPSSIEKTISKAKGQPREPQVYTLPPCQEEMTKNQVSLWCLVKGFYPSDIAVEWESNGQPENNYKTTPPVLDSDGSFFLYSRLTVDKSRWQEGNVFSCSVLHEALHNHYTQKSLSLSLGK
chain 2: HGDGSFSDEMNTILDNLAARDFINWLIQTKITDGGGGSGGGGSGGGGSEKEKEEQEERTHTCPPCPSHTQPLGVFLFPPKPKDQLMISRTPEVTCVVVDVSQEDPEVQFNWYVDGVEVHNAKTKPREEQFNSTYRVVSVLTVLHQDWLNGKEYKCKVSNKGLPSSIEKTISKAKGQPREPQVCTLPPSQEEMTKNQVSLSCAVKGFYPSDIAVEWESNGQPENNYKTTPPVLDSDGSFFLVSRLTVDKSRWQEGNVFSCSVLHEALHNHYTQKSLSLSLGK
B1: in the data set on B6 normal mice [1], the “body weight increase vs. feed intake” value is reported as “statistically significant body weight increase compared to the co-administered group”. The “terminal half-life, rank among MG12-1, 3, 4 and 5” value in data set [2] is listed as “shortest half-life”. In addition, in the data set with B6 normal mice [3], the small intestine weight result is “greater increase in small intestine weight than the GLP-2-Fc homodimer administered group; also recorded: superior effect of increasing small intestine weight” and the “weight change before autopsy (body weight)” value is given as “numerical increase in body weight”. In addition, in the data set with Balb/c-nude mice, the “distribution to the liver (SUV)” value is “reduced or showed no difference compared to Fc”; the “distribution to the small intestine and large intestine (SUV)” value is “significantly high compared to that of GLP-1-Fc homodimer and GLP-2-Fc homodimer”. For the same molecule, in the data set with B6 normal mice [4] (setting [5]), the “Average fluorescence intensity, Brain” value stood at 297; the “Average fluorescence intensity, Large intestine” value was determined as 2343; the “Average fluorescence intensity, Small intestine” value was determined as 4302. In addition, in the data set on B6 normal mice [4] (compared to GLP-1-Fc homodimer), the “distribution in the small intestine and the large intestine” value was “larger”.

B2: MG12-2: Knob/hole Fc heterodimer: GLP-2 (SEQ 17), glycan linker, second fusion protein SEQ 33; GLP-1 (SEQ 1), first fusion protein SEQ 25 (protein)
chain 1: HGDGSFSDEMNTILDNLAARDFINWLIQTKITDGGGGSGGGGSGGGGSAKNTTAPATTRNTTRGGEEKKKEKEKEEQEERTHTCPPCPSHTQPLGVFLFPPKPKDTLMISRTPEVTCVVVDVSQEDPEVQFNWYVDGVEVHNAKTKPREEQFNSTYRVVSVLTVLHQDWLNGKEYKCKVSNKGLPSSIEKTISKAKGQPREPQVYTLPPCQEEMTKNQVSLWCLVKGFYPSDIAVEWESNGQPENNYKTTPPVLDSDGSFFLYSRLTVDKSRWQEGNVFSCSVMHEALHNHYTQKSLSLSLGK
chain 2: HGEGTFTSDVSSYLEGQAAKEFIAWLVKGRGGGGGSGGGGSGGGGSEKEKEEQEERTHTCPPCPSHTQPLGVFLFPPKPKDTLMISRTPEVTCVVVDVSQEDPEVQFNWYVDGVEVHNAKTKPREEQFNSTYRVVSVLTVLHQDWLNGKEYKCKVSNKGLPSSIEKTISKAKGQPREPQVCTLPPSQEEMTKNQVSLSCAVKGFYPSDIAVEWESNGQPENNYKTTPPVLDSDGSFFLVSRLTVDKSRWQEGNVFSCSVMHEALHNHYTQKSLSLSLGK
Consider B2, for which the “GLP-2 activity lower than that of other variants” value in the data set with GLP-2 receptor was 4-5 times.

B3: GLP-2-Fc homodimer: GLP-2 homodimer fused with Fc not containing the Knobs-into-Holes (KiH) structure (protein)
chain: HGEGTFTSDVSSYLEGQAAKEFIAWLVKGRGGGGGSGGGGSGGGGSEKEKEEQEERTHTCPPCPSHTQPLGVFLFPPKPKDTLMISRTPEVTCVVVDVSQEDPEVQFNWYVDGVEVHNAKTKPREEQFNSTYRVVSVLTVLHQDWLNGKEYKCKVSNKGLPSSIEKTISKAKGQPREPQVCTLPPSQEEMTKNQVSLSCAVKGFYPSDIAVEWESNGQPENNYKTTPPVLDSDGSFFLVSRLTVDKSRWQEGNVFSCSVMHEALHNHYTQKSLSLSLGK
modifications: first fusion protein of bispecific fusion protein containing GLP-1 analogue
notes: GLP-2 homodimer fused with Fc not containing the Knobs-into-Holes (KiH) structure
Turning to B3, the small intestine weight result in the data set with B6 normal mice [3] is “statistically significant increase”. The “weight change before autopsy (body weight)” value with B6 normal mice [3] is given as “no change”. The EC50 with GLP-2 receptor (Table 3, GLP-2 activity) was determined as 0.44 nM; with GLP-2 receptor (read-out: EC50, GLP-2 activity, Table 4 experiment) it was 7.7 nM. Also, the “relative activity (%), GLP-2 activity” value in the data set with GLP-2 receptor (compared to GLP-2-Fc homodimer) is on record as 100%. Further, the “SUV (Standardized Uptake Value) in liver, small intestine and large intestine” value with Balb/c-nude mice (1-168 hours) is reported as “SUV values were increased compared to Fc in all of the three organs”.
